Our source for the interaction score values is publication PMC10397247.

One experiment deals with T1, 4H384-AA.
T1 chain: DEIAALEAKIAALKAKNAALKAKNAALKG
Kind of experiment: two-hybrid library CCmax.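 Note: natural log of median RNA to DNA barcode read ratio; higher means stronger binding.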 Particulars: mean of both orientations.

Another experiment concerns the target GCN2_T. Kind of experiment: two-hybrid library CCmax.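 Note: natural log of median RNA to DNA barcode read ratio; higher means stronger binding.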
Another experiment has as its target T2, O13-AA.
T2 chain: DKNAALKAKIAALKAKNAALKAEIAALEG
Put plainly: two-hybrid library CCmax.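 Note: natural log of median RNA to DNA barcode read ratio; higher means stronger binding.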 The note with it: mean of both orientations.

Another experiment deals with T3, 4H510-AA.
T3 chain: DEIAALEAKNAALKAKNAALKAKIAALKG
Put plainly: two-hybrid library CCmax.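 Note: natural log of median RNA to DNA barcode read ratio; higher means stronger binding.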 The note with it: mean of both orientations.

The next experiment has as its target T4, 4H4038-AA.
T4 chain: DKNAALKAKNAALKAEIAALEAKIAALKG
Put plainly: two-hybrid library CCmax.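 Note: natural log of median RNA to DNA barcode read ratio; higher means stronger binding.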 The note with it: mean of both orientations.

The target in another experiment is T5, 4H3590-AA.
T5 chain: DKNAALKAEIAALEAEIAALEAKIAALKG
Kind of experiment: two-hybrid library CCmax.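 Note: natural log of median RNA to DNA barcode read ratio; higher means stronger binding.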 Particulars: mean of both orientations.

In another experiment the target is T6, 4H43-AA.
T6 chain: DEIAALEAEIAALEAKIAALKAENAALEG
Put plainly: two-hybrid library CCmax. Particulars: mean of both orientations.

The target of the next experiment is T7, 4H_APH.
T7 chain: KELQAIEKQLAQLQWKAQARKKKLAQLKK
Kind of experiment: two-hybrid library CCmax.

In a further experiment the target is 4H_GCN4. Put plainly: two-hybrid library CCmax.
Chain of 4H_GCN4 (chain, as listed by the source): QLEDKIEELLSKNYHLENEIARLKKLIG
The next experiment has as its target T8, 4H_BCR.
T8 chain: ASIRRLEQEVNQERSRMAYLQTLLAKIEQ
Kind of experiment: two-hybrid library CCmax.

For the next experiment, the target named is T9, 4H451-AA.
T9 chain: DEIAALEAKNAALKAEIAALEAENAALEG
Kind of experiment: two-hybrid library CCmax. The note with it: mean of both orientations.

In another experiment the target is T10, 4H3905-AA.
T10 chain: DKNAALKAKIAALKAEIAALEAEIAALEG
Put plainly: two-hybrid library CCmax. Particulars: mean of both orientations.

The next experiment addresses T11, 4H3625-AA.
T11 chain: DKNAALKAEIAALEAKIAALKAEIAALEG
Kind of experiment: two-hybrid library CCmax. The note with it: mean of both orientations.

For the next experiment, the target named is T12, O11-AA.
T12 chain: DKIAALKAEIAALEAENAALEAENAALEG
Kind of experiment: two-hybrid library CCmax. Particulars: mean of both orientations.

The next experiment concerns the target T13, 4H3587-AA.
T13 chain: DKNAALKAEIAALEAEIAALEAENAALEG
Put plainly: two-hybrid library CCmax.

The next experiment concerns the target T14, O14-AA.
T14 chain: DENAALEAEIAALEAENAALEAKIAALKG
Put plainly: two-hybrid library CCmax. Particulars: mean of both orientations.

The target of a further experiment is T15, P9SHb.
T15 chain: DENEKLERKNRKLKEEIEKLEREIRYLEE
Put plainly: two-hybrid library CCNG1.

The target in another experiment is T16, 4H2935-AA.
T16 chain: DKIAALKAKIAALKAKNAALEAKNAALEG
Put plainly: two-hybrid library CCmax. The note with it: mean of both orientations.

Another experiment addresses T17, 4H481-AA.
T17 chain: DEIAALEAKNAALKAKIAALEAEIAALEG
Kind of experiment: two-hybrid library CCmax. Particulars: mean of both orientations.

The next experiment concerns the target T18, 4H2726-AA.
T18 chain: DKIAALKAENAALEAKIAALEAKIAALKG
Kind of experiment: two-hybrid library CCmax.

The target of another experiment is T19, 4H662-AA.
T19 chain: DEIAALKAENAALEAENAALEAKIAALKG
Put plainly: two-hybrid library CCmax. The note with it: mean of both orientations.

Another experiment addresses T20, 4H3605-AA.
T20 chain: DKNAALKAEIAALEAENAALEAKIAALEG
Put plainly: two-hybrid library CCmax. The note with it: mean of both orientations.

The next experiment has as its target T21, 4H3922-AA.
T21 chain: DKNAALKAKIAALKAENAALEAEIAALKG
Put plainly: two-hybrid library CCmax. The note with it: mean of both orientations.

Another experiment addresses T22, 4H4033-AA.
T22 chain: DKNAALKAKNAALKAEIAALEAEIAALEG
Kind of experiment: two-hybrid library CCmax. The note with it: mean of both orientations.

A further experiment addresses T23, 4H369-AA.
T23 chain: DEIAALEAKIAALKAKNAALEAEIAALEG
Kind of experiment: two-hybrid library CCmax. Particulars: mean of both orientations.

Another experiment deals with T24, 4H55-AA.
T24 chain: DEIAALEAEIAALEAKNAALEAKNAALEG
Put plainly: two-hybrid library CCmax. The note with it: mean of both orientations.

For the next experiment, the target named is T25, 4H327-AA.
T25 chain: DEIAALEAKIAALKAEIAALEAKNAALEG
Put plainly: two-hybrid library CCmax.

The next experiment has as its target T26, 4H3664-AA.
T26 chain: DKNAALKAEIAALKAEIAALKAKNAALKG
Kind of experiment: two-hybrid library CCmax. The note with it: mean of both orientations.

A further experiment deals with T27, 4H492-bH.
T27 chain: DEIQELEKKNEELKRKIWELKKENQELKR
Kind of experiment: two-hybrid library CCNG1.

Another experiment addresses T28, 4H477-bH.
T28 chain: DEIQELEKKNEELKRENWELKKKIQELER
Kind of experiment: two-hybrid library CCNG1.

A further experiment has as its target T29, 4H348-bH.
T29 chain: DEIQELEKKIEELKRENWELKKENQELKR
Put plainly: two-hybrid library CCNG1.

In the next experiment the target is T30, 4H741-bH.
T30 chain: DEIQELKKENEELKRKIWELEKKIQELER
Put plainly: two-hybrid library CCNG1.

A further experiment has as its target T31, 4H319-bH.
T31 chain: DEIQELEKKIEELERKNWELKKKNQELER
Put plainly: two-hybrid library CCNG1.

For another experiment, the target named is T32, 4H3277-bH.
T32 chain: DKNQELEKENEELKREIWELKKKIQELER
Put plainly: two-hybrid library CCNG1.

Another experiment deals with T33, 4H2915-bH.
T33 chain: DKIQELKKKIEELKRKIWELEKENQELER
Kind of experiment: two-hybrid library CCNG1.

A further experiment concerns the target T34, 4H40-bH.
T34 chain: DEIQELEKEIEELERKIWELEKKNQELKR
Put plainly: two-hybrid library CCNG1.

A further experiment concerns the target T35, 4H3057-bH.
T35 chain: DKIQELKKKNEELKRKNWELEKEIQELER
Put plainly: two-hybrid library CCNG1.

DKNAALKAEIAALEAEIAALEAENAALEG [4H3587-AA]: the interaction score is 1.5 with 4H384-AA; -2.29 with GCN2_T; 0.274 with O13-AA; -0.509 with 4H510-AA; -1.05 with 4H4038-AA; -0.934 in the experiment with 4H3590-AA. Moreover, the interaction score in the experiment with 4H43-AA is -0.335; with 4H_APH it was -1.77; with 4H_GCN4, -1.87; in the experiment with 4H_BCR, -2.15; with 4H451-AA, -1.79; in the experiment with 4H3905-AA it was -0.0465. Further, the interaction score was -0.634 with 4H3625-AA, -1.13 with O11-AA, -2.04 with 4H3587-AA and -1.35 in the experiment with O14-AA.
With DENEKLERKNRKLKEEIEKLEREIRYLEE [P9SHb], the interaction score in the experiment with P9SHb was -0.553.
On to DKIAALKAENAALEAKIAALEAKIAALKG [4H2726-AA], for which the interaction score was -1.45 with 4H2935-AA; 1.94 with 4H481-AA; 1.36 with 4H2726-AA; -0.732 with 4H662-AA; -0.283 with 4H3605-AA; -1.41 with 4H3922-AA. The interaction score with 4H4033-AA is 2.08; in the experiment with 4H369-AA, 1.68; with 4H3625-AA it was -0.165; with 4H55-AA it was -1.14; in the experiment with 4H327-AA it was 0.992; with 4H3664-AA, -1.05.
As to DKIQELKKKIEELKRKIWELEKENQELER [4H2915-bH], the interaction score was -1.59 in the experiment with 4H492-bH; -2.15 in the experiment with 4H477-bH; -0.507 with 4H348-bH; -0.324 with 4H741-bH; -1.33 with 4H319-bH; -1.15 in the experiment with 4H3277-bH. Further, the interaction score was 0.772 with 4H2915-bH, -1.4 with 4H40-bH and -0.637 in the experiment with 4H3057-bH.
